Reference: the supplement of paper PMC12042874
± gives the uncertainty stated by the source.

assay: amyloid nucleation score (Sup35N fusion, yeast selection) (log enrichment); library NNK2; higher = more nucleation; inactive = no reads after selection
How it was run: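 Peptides of 20 random codons fused to Sup35N were expressed in psi-negative yeast, induced 24 hours with 100 μM copper sulfate, then grown 7 days at 30°C on medium lacking adenine and uracil. Input and output plasmid inserts were Illumina-sequenced. Nucleation score is the DiMSum log enrichment of output over input reads, centred on the mode score of non-aggregating sequences, excluding sequences with under 100 input reads. Random libraries had three technical output replicates.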

Row | Substance | amyloid nucleation score
1 | SFIVRQGPTHKFVSECS | -0.887 ± 0.54
2 | RTNFVNGLAVVVRNM | -0.015 ± 0.45
3 | NTWYLTKADLDRVGAVMVQT | inactive
4 | LKMIWIYSFCLILVLYLRQA | 0.148 ± 1
5 | IILFEYCEF | -0.613 ± 1.1
6 | LVVCEMY | 0.348 ± 0.25
7 | SFGFVAMMIVRCANFRASPV | 0.688 ± 0.81
8 | IIFVFREYAINMKGVFK | 0.082 ± 1
9 | YVLPLPGNLNIMEAAGRYYA | 4.04 ± 0.057
10 | RRNTLRYARMKSRYSFAP | -0.674 ± 0.79
11 | YWYWWSSWY | 1.6 ± 0.29
12 | KYSAQIL | 0.172 ± 0.33
13 | SCRRMLFGMWILGFLNR | inactive
14 | IFVVCLGMDTVYLIGYYSPA | -1.25 ± 0.78
15 | FPTIDRQVFDVRR | -1.17 ± 0.41
16 | SPTGPMYRNLLSKKPYVR | -0.909 ± 0.35
17 | YWKVFFKAGWVVQSSAGMSA | 4.64 ± 0.068
18 | STSLVTIPCGGFGFKYSANP | 0.171 ± 0.33
19 | LSHRSQYGADVIRSR | -0.316 ± 0.61
20 | PHDGRNWFSVSDLMIGSDVG | 0.505 ± 0.36
21 | LFCVRSRLGVGCYRIWG | 5.364 ± 0.046
22 | PYWFRFLSYVQMLEYFCAPV | -0.764 ± 0.36
23 | ESGCQGNSLKCVLSRCNGWR | 3.45 ± 0.1
24 | QFFRPRDVRERAEWNLAKLV | 2.61 ± 0.12
25 | SVFLSNLFSYRSADNYGMAR | inactive

Row | Substance | amyloid nucleation score
26 | SARFCIWVYVSNGNNGMRCV | 3.52 ± 0.04
27 | LSPIVVPLYKQLDIFGVRRN | inactive
28 | LLCVGHFFLQ | inactive
29 | ICWPSTVDEGLPFYLWIYAM | 0.23 ± 0.39
30 | TVFRFNIYDYFFVM | 4.27 ± 0.057
31 | YNSTALKVSWRVRLGPWNWI | -0.06 ± 1.1
32 | LRWQKNLNSL | -0.778 ± 0.64
33 | KDGSFSPISL | -0.116 ± 0.35
34 | CMRVRCFSILNSAFCKCEMA | -1.62 ± 1.1
35 | QLWMTQTRTPSSKIRSKP | 0.641 ± 0.74
36 | EEMMFPFAFVFFICSFRNRL | 2.9 ± 0.065
37 | FNMTIVDISLYRFMNVLKRP | -0.907 ± 0.78
38 | KLTPYRISKMPSWLSA | inactive
39 | SMFNCNWYCGCCMCNLGCLA | 7.334 ± 0.035
40 | VNLLLMVWRGLLLARTGRSG | 1.96 ± 0.11
41 | YGRRGELN | -0.422 ± 1.1
42 | RMFVW | -0.341 ± 0.37
43 | LNCENELDFKLLSQSNTTMC | 0.199 ± 0.62
44 | TSPGTGIVGDIYLHYIFVKW | 0.327 ± 0.46
45 | KEAPFCASGLPD | -0.324 ± 1.1
46 | LNMPLLYDYPCYNSWDRYYS | -1.5 ± 0.53
47 | LRLSHMFLVNMSWGNVINLC | 3.28 ± 0.091
48 | WYISARPYVFCYDMQRSLRL | -0.505 ± 1.1
49 | CPVAQYQG | -0.308 ± 0.21
50 | NLCGCAMVCWVPF | -0.217 ± 0.54

Row | Substance | amyloid nucleation score
51 | RRVGTC | -0.097 ± 0.74
52 | DEWPWAVPSGVSRGCAGSVY | 0.231 ± 0.32
53 | FLSEFVRIGPYARS | inactive
54 | FPLVWA | 0.416 ± 0.22
55 | STYSPSSPHMLSYPFWARTP | -0.269 ± 0.76
56 | KLWTISVDHPGII | -1.45 ± 1
57 | QRYWSAYDTRNLIGE | 1.41 ± 0.47
58 | LIFRSVSVSFIPLLMKDGNG | -0.042 ± 0.74
59 | TESVPSWNGMKNMYEDNQLK | 1.54 ± 0.55
60 | IESSEQSWT | -0.75 ± 0.36
61 | PATVVILS | 1.23 ± 0.45
62 | CIRAECVKLYL | 6.11 ± 0.087
63 | ARNTTGGSYV | 0.504 ± 0.74
64 | LVTRTVWGLK | 0.223 ± 0.21
65 | FIMSSVCMIRCNITCSHQPS | 8.21 ± 0.035
66 | SRRRLVPSLLTRIISGVRGR | -0.877 ± 0.55
67 | LVESGQGDQSAPNRTDWFNG | -0.437 ± 0.49
68 | IMGHYVYDVVR | -0.352 ± 0.36
69 | FCNFGFIRNRSDDIGVSRGV | -1.07 ± 0.47
70 | GVPRMTSVDSYRLLLFSASR | 0.19 ± 0.25
71 | PRKDLPEYSLYSDLEPLVCN | -1.25 ± 0.62
72 | VSPLNGSVYGGDEVFGINLG | -1.95 ± 0.75
73 | ISSNKGFVEVAVSWVPRDVR | 0.744 ± 0.38
74 | MVILVLFASTVLQYTVPFWV | 0.247 ± 0.5
75 | SVQKIEIMYYRRKTGVYEFE | 3.4 ± 0.055

Row | Substance | amyloid nucleation score
76 | ISRWTSIVFKRLNGRDKEMK | 4.29 ± 0.088
77 | NLQLVGVMNPDPCESWN | 0.222 ± 0.31
78 | SLRLCLDTMEFRVFKNLGRV | 1.45 ± 0.099
79 | TSFFPIILKRVPSIKLGTRK | inactive
80 | LVVCKHVV | -0.323 ± 0.56
81 | WLLLYTCHLMISQISFHRKS | -0.874 ± 0.61
82 | NCWRNGCVQLFRWY | 5.15 ± 0.092
83 | IVGTDSQHVLVLQIFCVCLR | -0.326 ± 1.1
84 | GVSLFYNWPPSAFKVRYE | -0.611 ± 1
85 | FIRQKGYTVFLVCGNYVWMT | 5.979 ± 0.056
86 | GLGAKYWIYVVGFHCVHN | 0.289 ± 0.39
87 | DCLIRIVQSTGVYVRWQGRA | 4.35 ± 0.086
88 | GFTRKASGADTRGRRTAVSS | 1.61 ± 0.37
89 | KAYCVHSPVVCISGRVLDSG | -1 ± 1.1
90 | GNFVHTYNIK | 0.526 ± 0.66
91 | FCVLIGGCFFGNSK | 6.157 ± 0.038
92 | RTSSTR | 0.468 ± 0.28
93 | NVVSEEIMVCIVVSDLKRFR | 0.619 ± 0.29
94 | WKTKISSSSCRSGNRSEPNA | 0.281 ± 0.29
95 | VAGIVYLGARW | 5.43 ± 0.086
96 | VLSVSWYAYCVSMMFIKNWA | 0.697 ± 0.19
97 | SMVVGMGSCPNVTRGAGLKR | 1.06 ± 0.17
98 | NDGCIGVFFDRMVPDWVTTL | -0.477 ± 0.48
99 | FGWVINVNVRPTRFVTEGPV | 6.54 ± 0.073
100 | LFLRAHILGTVTCIRDFAPG | 1.14 ± 0.18

Row | Substance | amyloid nucleation score
101 | SSLGSSGAEKSRIGYIVIER | 0.261 ± 0.77
102 | CSSENLSLLIYSIKVGNGF | 3.28 ± 0.12
103 | LVWWLSNRV | 2.41 ± 0.088
104 | HIRGVIVGRAPDRCI | inactive
105 | PNGFVFSCNRSPMAGMGIDE | -2.14 ± 1.1
106 | VDRHYRSLRFVVGQSVLHSK | 4.952 ± 0.046
107 | DYLYCSAQFRHMRVQSPGNA | 0.885 ± 0.2
108 | FSRQISNGFIRGLFL | inactive
109 | VVEVCC | -0.368 ± 0.27
110 | WVGGYIQLFYVTRPQVSGRP | 3.17 ± 0.061
111 | AYMKYHAIRLNARFCGS | 3.53 ± 0.075
112 | DFDRSMRIARDNKRYGPVLV | -0.166 ± 1.1
113 | GRWKDRFCTVGMLYSRG | -0.316 ± 0.45
114 | KVVIYGCSS | -0.183 ± 0.65
115 | YSFYAKSW | inactive
116 | EYFMATE | -0.248 ± 0.35
117 | ALRTPCYSAMHLGAWVFVCF | 3.31 ± 0.14
118 | RFYLVIFFVTL | inactive
119 | VTNHV | 0.895 ± 0.33
120 | AMLLANALIWNRICGDRRLA | 0.823 ± 0.4
121 | CVHIKEVLAWLDRCGLGYVW | 0.662 ± 0.81
122 | AINWYYMHISMLECPAKNGS | -0.876 ± 0.76
123 | IIACLTVNYCTGRCATLMFP | 6.365 ± 0.036
124 | FRRVLCYKYYSFA | 2.42 ± 0.14
125 | IDLAFLLAVAVEPGWRTEV | -0.024 ± 1

Row | Substance | amyloid nucleation score
126 | LGYLIPNDEYFILWVIVCWN | -0.024 ± 1
127 | LKHKHRNMRITCSASI | -0.269 ± 0.25
128 | VMDCLMLSNMHLYIVLESKS | 5.08 ± 0.061
129 | IRYVMHWFISAVILTTPPCG | 0.355 ± 0.8
130 | RMNFLA | -0.145 ± 0.5
131 | SNLEHSGWRTRMRWGL | 5.5 ± 0.079
132 | TDGDRFSCRVKWNRHEDQRT | 0.463 ± 0.24
133 | SRVVGNRMYRSGLSRSSLLH | -0.263 ± 0.65
134 | VLFKIIRLRLENIPSSWWVI | 0.152 ± 0.32
135 | DALQSSFTTLLLYNAIEDVY | -0.317 ± 0.35
136 | LSKMWPPIHTTLIPLTDAER | 4.84 ± 0.06
137 | VMYLLNFNIMGGLSRIIGGI | 6.47 ± 0.049
138 | RTQSLASQ | 0.144 ± 0.56
139 | VKEVRLPGTRILGRLAGSFR | inactive
140 | LCCGSLDIYWFVFFF | 1.63 ± 0.25
141 | SYYELGNDLSACYFYCHRVA | -0.253 ± 0.79
142 | CLAFLGLLKSFMITKGW | -1.49 ± 0.78
143 | TRCFQILPCYRI | -0.624 ± 0.76
144 | NSSYTVGHGPDT | inactive
145 | CRWTASAIHARGRVSDRMRD | 0.05 ± 0.29
146 | GFIYLILTL | 1.28 ± 0.13
147 | LCIYFICSGLVRRLEWVG | -0.871 ± 0.3
148 | NCHMR | -0.19 ± 0.34
149 | TFRYFGDWNLQRGML | 0.85 ± 0.52
150 | NVNMVMNNSGKSRLCISENY | -0.19 ± 1

Row | Substance | amyloid nucleation score
151 | NWSNLEWWL | 0.054 ± 0.77
152 | SEERPKETRGGFWARVSSGG | 0.228 ± 0.74
153 | VMILGVYKNFMLIFELVPVY | -1.01 ± 0.76
154 | DKRGF | inactive
155 | SLVSKIRLRGAWINSGVKTG | 0.923 ± 0.17
156 | FCKSVHKVHGHNVWCTLCAG | 1.11 ± 0.18
157 | YPCVMFFPEPGEYCLVYRC | -0.608 ± 1.1
158 | RMLSLGNYGSNAYICCIVCY | 1.92 ± 0.36
159 | YDYEEFRSVLKWIAGRIYVD | -1.27 ± 0.48
160 | RRVSAIYYRSLCCLAHYFRL | 0.219 ± 1
161 | ISIFFVMLLMYRMFGYVECA | 0.856 ± 0.5
162 | LYDFRDSYAYVCLTGYKYLG | 1.02 ± 0.57
163 | WYSSSIGHKMWVTYGSLWGQ | 0.505 ± 0.54
164 | RKPPMPRFQLDSNRQKG | 0.313 ± 0.64
165 | VDITL | -0.779 ± 0.56
166 | MGLRCWKIIMWNYSRKLHQC | 0.031 ± 0.45
167 | DSDKLHDRDVVWNWGRGLYR | 0.399 ± 0.23
168 | RFIRSWNFCDRD | inactive
169 | WLWSSLISSMVVYSQ | 2.53 ± 0.072
170 | SRHWLNDVIFLSHSTSGQHW | 1.49 ± 0.18
171 | GSQVCILLAKGLWMVVFRIE | -0.795 ± 0.55
172 | NNSQEFSSYTWMNYLLIVKW | -1.02 ± 1
